Target: SARS-CoV-2 S1 (residues 1-682, Wuhan-Hu-1) (SARS-CoV-2 (Wuhan-Hu-1 strain), UniProt P0DTC2 14-682)
Experiment: BLI

B1: 87G7 human monoclonal antibody (recombinant human IgG1/kappa) (antibody, V domains shown)
VH: EVQLLESGGGLVQPGGSLRLSCVASGFTFSSYVMSWVRQAPGKGLEWVAAISGSGGNTYYADSVKGRFTISRDNSKNTLYLQMNSLRAEDTAVYYCAKEGTYYYGSGSFWGQGTLVTVSS
VL: EIVLTQSPATLSLSPGERATLSCRASQSFHNYLAWYQQKPGRAPRLLIFDASNRATGIPARFSGSGSGTDFTLTISSLEPEDFAVYYCQQRFNWPLTFGGGTKVEIK
Question: With B1 as the binder, how does the Kd read?
Answer: 2.89 nM
